The DeepSol protein solubility set

assay: soluble on expression in E. coli; label from the status in PepcDB or PDB records

Sequence | soluble on expression in E. coli
MSTKEKKTKKPHNVKSSVVPPKKWKTKKKDKKGTGKLRKTASNASLKKHGSTHKIKKPEDITSDGCPLLLTASDTCANIYAEQLSAPNNLSAKTSTPHKSIEAALTPVAFSPPPATQATQAMDAPATTKTAVKPTKWKAEDVAVAYIQKLDPGVIRAEYIEACAATKVNIDKDCQLWKKNLQMNQADNYPILDSTIVKNPAQPDSYVNMSSVIVPHCRYPILMAQMPKRGFEEEFWRAAFNESVVIMYVLMGTEDEKNDFFPTTMGAYVYYGAMFVNIRKVEKMDEERTRYTIEVLPNGFSNSVMMNVYVHTGWEASGVPVRYANTTRSVVDVMNFVKTSSGTEKMLVVSKNGCGRAGFFLSLGAAFCCLNDNSEPRIGEIVKAIRSQRPNAVDSIKQYASIYLCFVYYIKKKITIPEGMQQKFDDLKKGIEAIIREDLSIMY | not soluble
MLTEERHQKILQLLDQKSVVKSQELASLFNASESTIRRDLQELEDANLLERIHGGAKRILNLGFEQNMTEKSIKNTHEKQKIASLAVSCVQDGDMIYLDAGSTTLEMIPFLVGKQIHVVTNSVHHAAKLSDMEIPTIMLGGTLKLSTKAIIGATSMEQLQHFRFNKAFLGTNGAHLEFGLTTPDPEEAALKALAIHQAETAYVLLDHTKFNEVTFTKVEELESVTLLTDYCPAESLQGFQQKTILMEANKLEHHHHHH | soluble
MRLATKDLAEAIRKGQVRKSSFNTEQLRAIEKGESKIPDYTWHHHQDTGRMQLIREGLHHDTGHIGWEAMNKGR | not soluble
MAHHHHHHMKVKKKIVKKINKNSNVKIYKSSKHVNEVNNNTLTNNNEVKQNNEYYESFFIPKNLTEFNFKDNDKQLYYLMSLLNEIHDIFYIMLEQFKRKETNDENRDDQIYNYFLRYPVVRTILTQYRKQVLKGFTFNISLLSDDIKRSDFMDNIVKFGGLINNQDYNHLLTVNTFIENENIKNVSTSNLMWLERALYTWK | not soluble
MGHHHHHHSHMLIPKTMGKMSPGHVRDLHGSPSHHRPRGPGGKSGFVGWAQGLCAVCSLGTWCPVSQLLQPWLKGANIELGLWLQRVEAPSIGSFHVMLSLWVQRCQELRFGNLCLDFRIYMETPGCPGKSLLQGQSPHGEPLLGQCGREMWGRAPTQSPCWGTA | not soluble
MLYDKWDVIMKKVQDIVEAIPKNGTLSIVQRDLESNGDKFALKNPPQSFNLEHHHHHH | not soluble
MTTMRTGSQIFMRSGQWNELWKEKNVPLRFTNPNISFDGSERTKAEIEVVDSQEKSLVTRNMQIIPWQHDIANLHLPERDSLILMPCATRTVGRRLTARNIGLADTRGNCDISWPGVMIKIYGQQAVTSARSHQKTAVLFSVRRAQVAAMILTYPWLLSEPVRVIARYSGVSVGTVSNALKIFQKAGYLAETMDGHRLVNAELFLSAWARAYPTGLGADLELLRGKAQQLPPYNLEHLGVKASESAVSDHISDGQSASLYLGEETFSPKVIKELRLVKNPAGTITLRRAFWNTIDVKEIPEAIVYADLLNSDDARLWDVAQIIKAIILKRARGDWLGDQDG | not soluble
MVCKVCGQKAQVEMRSRGLALCREHYLDWFVKETERAIRRHRMLLPGERVLVAVSGGKDSLALWDVLSRLGYQAVGLHIELGIGEYSKRSLEVTQAFARERGLELLVVDLKEAYGFGVPELARLSGRVACSACGLSKRYIINQVAVEEGFRVVATGHNLDDEAAVLFGNLLNPQEETLSRQGPVLPEKPGLAARVKPFYRFSEREVLSYTLLRGIRYLHEECPNAKGAKSLLYKEALNLVERSMPGAKLRFLEGFLEKIRPRLDVGEEVALKECERCGYPTTGAVCAFCRMWDAVYRRAKKRRLLPEEAVFHPKAPVARG | soluble
EIFSQELTQREANVKKVHENLEELQKKLDHTSFAHKEDRDRLEAQIAQKEQEQKAKLAEYDQKVQNEFDARERAEREREAARGDAAAEKQRLASLLKDLEDDASGYNRLRPSKPMLSEEDTNILRQLFLSSAVSGSGKFSFQDLKQVLAKYADTIPEGPLKKLFVMVENDTKGRMSYITLVAVANDLAALVADFRKIDTNSNGTLSRKEFREHFVRLGFDKKSVQDALFRYADEDESDDVGFSEYVHLGLCLLVLRILYAFADFDKSGQLSKEEVQKVLEDAHIPESARKKFEHQFSVVDVDDSKSLSYQEFVMLVLLMFHDD | soluble
MGSDKIHHHHHHMKRSKYQLGRIGRLTIDRIVSIGAYLDGGDTDILLPNRYLPSDAAPGMEVEVFVYHDNEGRLIATTMRPLVEVGQVALLHAVSVTDSGAYMEWGIHKDLFVPFREQTQLIREGGRYFVYAYIDHVSGKIVGSAKLSKHLGNIPPSYSPGDKVSALVYERIDPGYRMIVDHTHWGMIYSDTLPMPLAIGAQVKAFVIRLRDDGKIDLSLKPIGYDRIDSESERLLHMLQRRGGRLPIGDKSSPEEIMQHTGMSKKTFKMAVGMLYRRRLIRITPTAITLNETVSTPEA | not soluble
MAHHHHHHMGPRKSNAFASGKDDGAAAGKVRKVGGNGVGGSSATNSGSHKHGGAAAATMADIYTNEERAFLESQLALFTSGGGGSGGTDFARMTKEQWFAGLPTLVSATEKLLQAAADRYQQTCRERAAAAASVNGAQNAGSLPSADSSGVGKHGTTASSSHANSCTAEGIAPSGVAGSSDHRSTPAGGTPAQFAEENAYIIAQAQQLQWYPFTYQRWVELLLEPGKYHTACNDGGLRGDAIQTSLRRCILVTYPAVEGGDVI | soluble
SGDFTWSSNLVFSWNKNEIKDLYGDGQNDLGNRWFLGHPIGVIYDYTMVGIWQEDEIARGDHLNWDPIAEAGDVKLADISGPDGVPDGKIDDNDRTIKGQTTPKWIGGLTNTFTYKDFTLSIFIQTTQGLKKNNSLIGMAGDEMGRRNTTTEIGYWTPENKSNEWRSLRKNSNKHGYGFPCDASYTRIKDITLSYTFPQRMIQKMGIGGLQLYVSGRNLFTFTDWVGWDPEARQVARGNSSWDSTRGETVYDSSNYPMTKSCVFGVNLTF | not soluble
MQILKAIGLLMEYPDDELWECRDEALTLIQHDAPMLADFTRELLYAPLLDKQAEWCEVFDRGRATSLLLFEHVHAESRDRGQAMVDLLSQYETVGLHLNCRELPDHLPLYLEYLSVLPEAEAREGLQNIAPILALLGGRLKQRGAPWYQLFDALLTLAGSTLTSDSVTKQIIQESRDDTRQALDAVWEEEQVKFIEDNATTCDSSPLHHYQRRFSQDAAPQYVDVSAGGPK | not soluble
MGSDKIHHHHHHMIDGKTANEIFDSIRQHIIAGTLRAEDSLPPVRELASELKVNRNTVAAAYKRLITAGLAQSLGRNGTVIKGSPSPVALEGGDPHTPLHDLSGGNPDPQRLPDLSRYFARLSRTPHLYGDAPVSPELHAWAARWLRDATPVAGEIDITSGAIDAIERLLCAHLLPGDSVAVEDPCFLSSINMLRYAGFSASPVSVDSEGMQPEKLERALNQGARAVILTPRAHNPTGCSLSARRAAALQNMLARYPQVVVIIDDHFALLSSSPWQPVIAQTTQHWAVIRSVSKTLGPDLRLAIVASDSATSAKLRLRLNAGSQWVSHLLQDLVYACLTDPEYQHRLTQTRLFYAARQQKLARALQQYGIAISPGDGVNAWLPLDTHSQATAFTLAKSGWLVREGEAFGVSAPSHGLRITLSTLNDSEINTLAADIHQALNR | not soluble
MIDFSNIETYWPMTSSAFGLFITQGGLKPIFTSLNHMWYSKYGYLTERKAKLKEIENEYIYEIEKRKLENQEKFKNEIDCEFSKIPQTSLKEPVEYILYPAINESEQYLSNETLRNMFARTIASTFNQDKEKDLHSAFVQIIKQMTPLDAQNLLLINQEGNNLIANLQIGVHYSKENLSGTVNKANNIYLSKLDYSPDIIASSIDNLTRLGLIKVDYLHYPLDSNYESIKQTTIYKSLESEINTLNLFKTSNTKYDIKIEKGKVSLTDFGKKFISVCLE | not soluble
MGSDKIHHHHHHMKMTDPLYGTFEIEPVLAELIQSPLVSRLAHVHQGGSSYLVNPLWDLSRLDHSIGVMLFIRKFGGSLEEQIAGLLHDVSHTAFSHVVDYALDFEEEDYHEQIFEDFVKTSTIPAILEKYGYSFEGIFDDISKWKILEQEAPELCADRIDYTLQDLYRHRKISLAEVEEFLQALVMVDGRLYLANIALAEWFVAQYYSEVIDYFYDPLNVYSYEILAEAMRIAFQQETITTADLRLTDTELLAKLNANSDAREKIQLLASAHLEENEADFTYHHKKKMRLINPSILVDGRLIPADELSEKVRKMNDWASERSKHGIYIKATKKSKQ | not soluble
MSSFLRPAVSGQDPFTTGNYRAISSHLAITPPVSVVIPAMNEAENLPYVFKSLPDWIHEVVLVDGNSTDGTVEVARELWPDVKVVEQRGKGKGDALITGFEACTGDIIVMVDADGSADGQEIVSYVSALVSGADFAKGSRFANGGGTSDMTPIRKLGNRVLCAAVNAKFGARYTDLCYGYNAFWRHCLDQIDLDCTGFEVETLMNIRVVKAGLKVQEIPSHEYLRIHGASNLRAVRDGLRVLKVILKERSNRRALRSRPHAMQLNSGQGEVSLEHHHHHH | soluble
GSHMASDLKNPYERIQAEAYDAMSGIQTEGTDDDGGGDNIGWINDGDWVKYERVHFERDASSIEVRVASDTPGGRIEIRTGSPTGTLLGDVQVPNTGGWQQWQTVTGNVQIQPGTYDVYLVFKGSPEYDLMNVNWFVFRANG | soluble
GFNYSITGNIATFKNKITELPDNVRSVYGGNGMLDDIIGRPRNSIYGYVADGIFKTQEEVDNSPQQAGKGLGRIRYKDLDGDGRITQDYDRTWIGVSDPDFTYGLNLQASYKNVDLALFFQGVHGGDVWDSWIEYSDFWNIQDVNNTNHLKGVFNAWSPQNPDSNIPALSTRNTNDEKRTSTYFLKDGSYLKLRTIELGYTFPESMVKKAMISRLRAYVSANNVFTIKKWWDSNRFSGPDPEIRDFGYVIPFTATVGVNITF | not soluble
STEKEKMIAGELYRSADETLSRDRLRARQLIHRYNHSLAEEHTLRQQILADLFGQVTEAYIEPTFRCDYGYNIFLGNNFFANFDCVMLDVCPIRIGDNCMLAPGVHIYTATHPIDPVARNSGAELGKPVTIGNNVWIGGRAVINPGVTIGDNVVVASGAVVTKDVPDNVVVGGNPARIIKKL | soluble
MHHHHHHSSGRENLYFQGNTTKHIILVRHGQYERRYKDDENSKRLTKEGCKQADITGKKLKDILNNKKVSVIYHSDMIRAKETANIISKYFPDANLINDPNLNEGTPYLPDPLPRHSKFDAQKIKEDNKRINKAYETYFYKPSGDEDEYQLVICHGNVIRYFLCRALQIPLFAWLRFSSYNCGITWLVLDDEGSVVLREFGSVSHLPFESVTYF | soluble
MSLYRELMQKKNVRPYVLMARFGLEKENQRSTREGLLATTEHPTVFGNRSYHPYIQTDFSETQLELITPVANSGTEMLRFLDAIHDVARRSIPEDEMLWPLSMPPQLPTKDEEIKIAKLDQYDAVLYRRYLAKEYGKRKQMVSGIHFNFEYDQALIQQLYDEQSEVTDCKQFKTKVYMKVARNFLRYRWLITYLFGASPVSEDRYFRVYDDQPQEPVRSIRNSTYGYRNHDNVKVSYASLERYLEDIHRMVENGLLSEEKEFYAPVRLRGGKQMSDLPKTGIRYIELRNLDLNPFSRLGIVEDTVDFLHYFMLYLLWTDEKEEADEWVKTGDIFNEQVALGHPHETIKLIAEGDRIFSEMIDMLDALGIRKGKEVVGKYYQQLRNPQDTVSGKMWTIIQENSNSELGNIFGNQYQSMAFERPYQLAGFREMELSTQIFLFDAIQKGLEIEILDEQEQFLKLQHGEHIEYVKNANMTSKDNYVVPLIMENKTVTKKILSAAGFHVPGGEEFSSFIEAQEAHLRYANKAFVVKPKSTNYGLGITIFKEGASLEDFTEALRIAFKEDTAVLIEEFLPGTEYRFFVLDNDVKAIMLRVPANVTGDGKHTVEELVAAKNSDPLRGTNHRAPLELIQLNDLEKLMLKEQGLTIYSVPEKEQIVYLRENSNVSTGGDSIDMTDVIDDSYKQIAIEAVAALGAKICGIDLIIPDKDVKGTRDSLTYGIIEANFNPAMHMHVYPYAGQGRRLTMDVLKLLYPEVVQEGGSHHHHHH | soluble
